Reference: publication PMC7319586

T1: Rv1044 (Mycobacterium tuberculosis (H37Rv), UniProt P96357 1-207)
T1 sequence: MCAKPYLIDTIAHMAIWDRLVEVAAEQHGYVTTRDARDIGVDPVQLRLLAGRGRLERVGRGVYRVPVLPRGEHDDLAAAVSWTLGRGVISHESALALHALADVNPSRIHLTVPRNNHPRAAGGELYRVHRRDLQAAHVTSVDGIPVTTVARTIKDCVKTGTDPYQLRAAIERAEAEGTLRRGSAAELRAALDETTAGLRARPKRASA

T2: Rv2827c (Mycobacterium tuberculosis (H37Rv), UniProt P71625 1-295)
T2 sequence: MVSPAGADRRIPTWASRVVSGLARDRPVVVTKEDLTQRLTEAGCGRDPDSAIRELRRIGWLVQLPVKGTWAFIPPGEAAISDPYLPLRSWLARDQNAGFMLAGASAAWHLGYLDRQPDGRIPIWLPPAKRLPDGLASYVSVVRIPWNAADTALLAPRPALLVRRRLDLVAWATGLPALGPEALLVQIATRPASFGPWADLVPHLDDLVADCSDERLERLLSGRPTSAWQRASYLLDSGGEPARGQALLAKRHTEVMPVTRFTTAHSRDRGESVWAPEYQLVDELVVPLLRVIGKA

B1: Prv2827c -61 to -131 WT (IR1-IR2, TRB1106) (dsDNA)
DNA 1: CAGGGCACTTGAGTTTGGAACGGGTTTCGTACTGTCACTGACCGAAGCCCGTTCCTAAATCAAGTGATTTCAAGCTTTTGTCAGTGCGCA
DNA 2: TGCGCACTGACAAAAGCTTGAAATCACTTGATTTAGGAACGGGCTTCGGTCAGTGACAGTACGAAACCCGTTCCAAACTCAAGTGCCCTG
B2: Prv2827c -1 to -71 WT (IR3-IR4, TRB1104) (dsDNA)
DNA 1: CAAGTGATTTCTTGAGTTTGAACATTGTTGCGTACAGATATAGTATAGTTTCCGGTGTGAATTCAAGTTCGAAGCTTTTGTCAGTGCGCA
DNA 2: TGCGCACTGACAAAAGCTTCGAACTTGAATTCACACCGGAAACTATACTATATCTGTACGCAACAATGTTCAAACTCAAGAAATCACTTG
B3: Prv1044 -1 to -71 WT (TRB1086) (dsDNA)
DNA 1: AACTAGGCGCGCCTAGCCTGGACGAGTCCCCGGGCCGACATTCGCCCGAGGCCTTGGCCTCCATCACCTAAAAGCTTTTGTCAGTGCGCA
DNA 2: TGCGCACTGACAAAAGCTTTTAGGTGATGGAGGCCAAGGCCTCGGGCGAATGTCGGCCCGGGGACTCGTCCAGGCTAGGCGCGCCTAGTT
B4: Prv1044 -61 to -131 WT (TRB1102) (dsDNA)
DNA 1: GTATCTGCGACAAGGGCAGCGTCGATGCCTCGACATGCAGAGTCGGTGTTCGCTTCACGCGAACTAGGCGCAAGCTTTTGTCAGTGCGCA
DNA 2: TGCGCACTGACAAAAGCTTGCGCCTAGTTCGCGTGAAGCGAACACCGACTCTGCATGTCGAGGCATCGACGCTGCCCTTGTCGCAGATAC
B5: PabiEi -1 to -71 WT (IR1-IR2, TRB1061) (dsDNA)
DNA 1: AAAAGAAAATGTTGCTTTTATACCACAAATATTGTAAAATTGTAGTGTAAAAGCAACAAGTGGGGGGCCGTAAGCTTTTGTCAGTGCGCA
DNA 2: TGCGCACTGACAAAAGCTTACGGCCCCCCACTTGTTGCTTTTACACTACAATTTTACAATATTTGTGGTATAAAAGCAACATTTTCTTTT

What was measured:
[1] = target: T1, Rv1044; assay: EMSA; settings: protein: recombinant; tags: His6-SUMO removed by SENP; untagged; chain copies: 2; label: 5' 6-FAM on strand 2; blunt
[2] = target: T2, Rv2827c; assay: EMSA; weakly negative co-operativity; settings: protein: recombinant; tags: His6-SUMO removed by SENP; untagged; label: 5' 6-FAM on strand 2; blunt
[3] = target: T2, Rv2827c; assay: EMSA; two binding events; not co-operative; settings: protein: recombinant; tags: His6-SUMO removed by SENP; untagged; label: 5' 6-FAM on strand 2; blunt
[4] = target: T2, Rv2827c; assay: EMSA; settings: protein: recombinant; tags: His6-SUMO removed by SENP; untagged; label: 5' 6-FAM on strand 2; blunt

Binder	binding result [1]	binding result [2]	binding result [3]	binding result [4]
B1	no binding	binds		
B2	no binding		binds	
B3	no binding			
B4	no binding			
B5				no binding
